Blank lines part the entries; values can stand above or below the binder they belong to.
Assays:
[1] = target: T1, Recombinant Human DLL4 (R&D Systems Cat#1506-D4/CF) (human, UniProt Q9NR61 27-524); test: MSD multispot ECL, antigen spotted on plate, Fab in solution; blank spot of this row 237
T1 construct: Bought recombinant protein; also called delta-like protein 4; rHuman DLL4

[2] = target: T2, rHuman CD44/Fc Chimera, CF (R&D Systems Cat#3660-CD) (human, UniProt P16070 21-220); test: as above
T2 construct: Bought recombinant protein; Fc part of the bought chimera not given

[3] = target: T3, rHuman Erythropoietin R/Fc Chimera, CF (R&D Systems Cat#963-ER) (human, UniProt P19235 25-250); test: as above
T3 construct: Bought recombinant protein; also called EPO R; Epo R/Fc; Fc part of the bought chimera not given
T3 sequence (looked up): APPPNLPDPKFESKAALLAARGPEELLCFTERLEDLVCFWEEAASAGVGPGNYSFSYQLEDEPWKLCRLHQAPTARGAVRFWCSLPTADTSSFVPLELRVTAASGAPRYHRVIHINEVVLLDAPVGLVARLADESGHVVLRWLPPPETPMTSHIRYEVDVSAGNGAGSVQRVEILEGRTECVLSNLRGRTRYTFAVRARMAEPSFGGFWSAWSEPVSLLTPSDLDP

[4] = target: T4, rHuman IGF-1 sR (insulin-like growth factor-1 soluble receptor), CF (R&D Systems Cat#391-GR) (human, UniProt P08069 31-932); test: as above
T4 construct: Bought recombinant soluble receptor; The column head prints only 'IGF-1'

[5] = target: T5, rHuman HGF R/c-MET/Fc Chimera, CF (R&D Systems Cat#358-MT/CF) (human, UniProt P08581 25-932); test: as above
T5 construct: Bought recombinant protein; also called HGF R/Fc; Fc part of the bought chimera not given
T5 sequence (P08581 25-932, change not shown): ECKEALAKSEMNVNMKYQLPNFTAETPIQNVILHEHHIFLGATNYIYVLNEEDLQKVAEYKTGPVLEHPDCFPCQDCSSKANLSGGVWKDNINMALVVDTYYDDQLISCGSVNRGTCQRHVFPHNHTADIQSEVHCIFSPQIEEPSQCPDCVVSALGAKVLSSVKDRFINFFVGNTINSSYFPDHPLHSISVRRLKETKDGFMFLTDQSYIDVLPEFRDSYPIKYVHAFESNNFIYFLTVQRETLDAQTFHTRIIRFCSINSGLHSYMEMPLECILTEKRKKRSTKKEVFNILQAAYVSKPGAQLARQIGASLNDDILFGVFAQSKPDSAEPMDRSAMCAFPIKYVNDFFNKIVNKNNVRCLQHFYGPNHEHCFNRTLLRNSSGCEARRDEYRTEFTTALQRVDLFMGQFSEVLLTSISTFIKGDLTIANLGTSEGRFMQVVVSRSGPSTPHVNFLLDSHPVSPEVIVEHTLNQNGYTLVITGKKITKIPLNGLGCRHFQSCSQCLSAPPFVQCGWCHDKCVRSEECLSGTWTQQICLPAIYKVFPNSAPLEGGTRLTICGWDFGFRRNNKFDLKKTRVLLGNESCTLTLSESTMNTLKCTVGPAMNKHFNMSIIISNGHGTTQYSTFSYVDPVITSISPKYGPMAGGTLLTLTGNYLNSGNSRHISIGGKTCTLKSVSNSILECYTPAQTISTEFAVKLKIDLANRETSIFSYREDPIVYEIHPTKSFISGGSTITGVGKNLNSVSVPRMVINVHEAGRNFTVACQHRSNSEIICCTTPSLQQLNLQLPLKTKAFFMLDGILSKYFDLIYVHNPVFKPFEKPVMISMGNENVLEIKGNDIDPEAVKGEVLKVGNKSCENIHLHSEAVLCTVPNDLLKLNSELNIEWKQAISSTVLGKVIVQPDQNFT

[6] = target: T6, rHuman Notch-1/Fc Chimera, CF (R&D Systems Cat#3647-TK) (human, UniProt P46531 19-526); test: as above
T6 construct: Bought recombinant protein; Fc part of the bought chimera not given

[7] = target: T7, rHuman EGF R/Fc Chimera, CF (R&D Systems Cat#344-ER) (human, UniProt P00533 25-645); test: as above
T7 construct: Bought recombinant protein; Fc part of the bought chimera not given

[8] = target: T8, rHuman P-Cadherin/Fc Chimera, CF (R&D Systems Cat#861-PC) (human, UniProt P22223 108-654); test: as above
T8 construct: Bought recombinant protein; Fc part of the bought chimera not given

[9] = target: T9, rHuman ErbB2/Fc Chimera, CF (R&D Systems Cat#1129-ER) (human, UniProt P04626 23-652); test: as above
T9 construct: Bought recombinant protein; Fc part of the bought chimera not given

[10] = target: T1, Recombinant Human DLL4 (R&D Systems …); test: MSD multispot ECL, antigen spotted on plate, Fab in solution; blank spot of this row 258
[11] = target: T2, rHuman CD44/Fc Chimera, CF (R&D Systems …); test: as above
[12] = target: T3, rHuman Erythropoietin R/Fc Chimera, CF …; test: as above
[13] = target: T4, rHuman IGF-1 sR (insulin-like growth …); test: as above
[14] = target: T5, rHuman HGF R/c-MET/Fc Chimera, CF (R&D …); test: as above
[15] = target: T6, rHuman Notch-1/Fc Chimera, CF (R&D …); test: as above
[16] = target: T7, rHuman EGF R/Fc Chimera, CF (R&D …); test: as above
[17] = target: T8, rHuman P-Cadherin/Fc Chimera, CF (R&D …); test: as above
[18] = target: T9, rHuman ErbB2/Fc Chimera, CF (R&D …); test: as above
[19] = target: T1, Recombinant Human DLL4 (R&D Systems …); test: MSD multispot ECL, antigen spotted on plate, Fab in solution; blank spot of this row 440
[20] = target: T2, rHuman CD44/Fc Chimera, CF (R&D Systems …); test: as above
[21] = target: T3, rHuman Erythropoietin R/Fc Chimera, CF …; test: as above
[22] = target: T4, rHuman IGF-1 sR (insulin-like growth …); test: as above
[23] = target: T5, rHuman HGF R/c-MET/Fc Chimera, CF (R&D …); test: as above
[24] = target: T6, rHuman Notch-1/Fc Chimera, CF (R&D …); test: as above
[25] = target: T7, rHuman EGF R/Fc Chimera, CF (R&D …); test: as above
[26] = target: T8, rHuman P-Cadherin/Fc Chimera, CF (R&D …); test: as above
[27] = target: T9, rHuman ErbB2/Fc Chimera, CF (R&D …); test: as above
[28] = target: T1, Recombinant Human DLL4 (R&D Systems …); test: MSD multispot ECL, antigen spotted on plate, Fab in solution; blank spot of this row 298
[29] = target: T2, rHuman CD44/Fc Chimera, CF (R&D Systems …); test: as above
[30] = target: T3, rHuman Erythropoietin R/Fc Chimera, CF …; test: as above
[31] = target: T4, rHuman IGF-1 sR (insulin-like growth …); test: as above
[32] = target: T5, rHuman HGF R/c-MET/Fc Chimera, CF (R&D …); test: as above
[33] = target: T6, rHuman Notch-1/Fc Chimera, CF (R&D …); test: as above
[34] = target: T7, rHuman EGF R/Fc Chimera, CF (R&D …); test: as above
[35] = target: T8, rHuman P-Cadherin/Fc Chimera, CF (R&D …); test: as above
[36] = target: T9, rHuman ErbB2/Fc Chimera, CF (R&D …); test: as above

ECL signal [10]: 48300 | ECL signal [11]: 287 | ECL signal [12]: 430 | ECL signal [13]: 188 | ECL signal [14]: 386 | ECL signal [15]: 255 | ECL signal [16]: 324 | ECL signal [17]: 364 | ECL signal [18]: 264
B2: Fab VH1-46_IGHD6-6*01_IGHJ1*01 S102A/S103P/S104F/H111F (H:APFF) & L6_IGKJ1*01 S76Q (Fab, V domains shown)
VH: QVQLVQSGAEVKKPGASVKVSCKASGYTFTSYYMHWVRQAPGQGLEWMGIINPSGGSTSYAQKFQGRVTMTRDTSTSTVYMELSSLRSEDTAVYYCAREEYAPFSAEYFQFWGQGTLVTVSS
VL: EIVLTQSPATLSLSPGERATLSCRASQSVSSYLAWYQQKPGQAPRLLIYDASNRATGIPARFSGSGSGTDFTLTIQSLEPEDFAVYYCQQRSNWPPWTFGQGTKVEIKR
notes: Fab expressed in E. coli from plasmid A (heavy chain CH1, His6 and Flag tags) and plasmid C (kappa CL)

ECL signal [28]: 29800 | ECL signal [29]: 313 | ECL signal [30]: 371 | ECL signal [31]: 347 | ECL signal [32]: 394 | ECL signal [33]: 402 | ECL signal [34]: 331 | ECL signal [35]: 271 | ECL signal [36]: 260
B4: Fab VH1-46_IGHD6-6*01_IGHJ1*01 S102A/S103P/S104F/H111F (H:APFF) & L6_IGKJ1*01 S76P (Fab, V domains shown)
VH: QVQLVQSGAEVKKPGASVKVSCKASGYTFTSYYMHWVRQAPGQGLEWMGIINPSGGSTSYAQKFQGRVTMTRDTSTSTVYMELSSLRSEDTAVYYCAREEYAPFSAEYFQFWGQGTLVTVSS
VL: EIVLTQSPATLSLSPGERATLSCRASQSVSSYLAWYQQKPGQAPRLLIYDASNRATGIPARFSGSGSGTDFTLTIPSLEPEDFAVYYCQQRSNWPPWTFGQGTKVEIKR
notes: as for B2

The remaining lines, values behind:

B1: Fab VH1-46_IGHD6-6*01_IGHJ1*01 S102A/S103P/S104F/H111F (H:APFF) & L6_IGKJ1*01 S76E (Fab, V domains shown)
VH: QVQLVQSGAEVKKPGASVKVSCKASGYTFTSYYMHWVRQAPGQGLEWMGIINPSGGSTSYAQKFQGRVTMTRDTSTSTVYMELSSLRSEDTAVYYCAREEYAPFSAEYFQFWGQGTLVTVSS
VL: EIVLTQSPATLSLSPGERATLSCRASQSVSSYLAWYQQKPGQAPRLLIYDASNRATGIPARFSGSGSGTDFTLTIESLEPEDFAVYYCQQRSNWPPWTFGQGTKVEIKR
notes: as for B2
ECL signal [1]: 51600 | ECL signal [2]: 439 | ECL signal [3]: 440 | ECL signal [4]: 336 | ECL signal [5]: 228 | ECL signal [6]: 313 | ECL signal [7]: 266 | ECL signal [8]: 338 | ECL signal [9]: 277

B3: Fab VH1-46_IGHD6-6*01_IGHJ1*01 S102A/S103P/S104F/H111F (H:APFF) & L6_IGKJ1*01 S76N (Fab, V domains shown)
VH: QVQLVQSGAEVKKPGASVKVSCKASGYTFTSYYMHWVRQAPGQGLEWMGIINPSGGSTSYAQKFQGRVTMTRDTSTSTVYMELSSLRSEDTAVYYCAREEYAPFSAEYFQFWGQGTLVTVSS
VL: EIVLTQSPATLSLSPGERATLSCRASQSVSSYLAWYQQKPGQAPRLLIYDASNRATGIPARFSGSGSGTDFTLTINSLEPEDFAVYYCQQRSNWPPWTFGQGTKVEIKR
notes: as for B2
ECL signal [19]: 52000 | ECL signal [20]: 369 | ECL signal [21]: 384 | ECL signal [22]: 378 | ECL signal [23]: 429 | ECL signal [24]: 298 | ECL signal [25]: 385 | ECL signal [26]: 329 | ECL signal [27]: 436
